Tests used:
Test in all cases: gcPBM; about 25 ug protein; PBS, 1% milk, 0.2 mg/ml BSA, salmon testes DNA, 0.03% Triton X-100
SIP2 D1 = biological target: T1, SIP2 D1 (Plasmodium falciparum, UniProt C6KSN9 177-235); details: tags: N-terminal GST (pGEX-4T-1), kept; label: surface-attached array probe
T1 sequence: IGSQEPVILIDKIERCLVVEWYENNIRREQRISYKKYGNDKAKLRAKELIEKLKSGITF

AP2-I D3 = AP2-I D3 (Plasmodium falciparum, UniProt Q8IJW6 910-1027); details: tags: N-terminal GST (pGEX-4T-1), kept; label: surface-attached array probe
HDP1 homeodomain-like = biological target: T2, HDP1 homeodomain-like (Plasmodium falciparum, UniProt Q8IKH4 2990-3078); details: tags: N-terminal GST (pGEX-4T-1), kept; chain copies: 2; label: surface-attached array probe
T2 sequence: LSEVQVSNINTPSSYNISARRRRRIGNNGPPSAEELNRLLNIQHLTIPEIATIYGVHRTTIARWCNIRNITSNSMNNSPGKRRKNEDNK

AP2-G D1 = biological target: T3, AP2-G D1 (Plasmodium falciparum, UniProt Q8I5I9 2123-2245); details: tags: N-terminal GST (pGEX-4T-1), kept; label: surface-attached array probe
T3 sequence: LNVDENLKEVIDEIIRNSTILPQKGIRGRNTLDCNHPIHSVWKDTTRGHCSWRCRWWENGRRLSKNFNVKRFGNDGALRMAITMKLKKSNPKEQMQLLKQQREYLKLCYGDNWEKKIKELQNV

| Binder | binding signal (SIP2 D1) | binding signal (AP2-I D3) | binding signal (HDP1 homeodomain-like) | binding signal (AP2-G D1) |
| --- | --- | --- | --- | --- |
| GTGCAC_site10459 (dsDNA) DNA 1: TTATAAATGTGCGTAGTGCATAAACAAAAAAAAAAT DNA 2: ATTTTTTTTTTGTTTATGCACTACGCACATTTATAA | 8.72 ln median PBM intensity, better of two orientations | 11.5 ln median PBM intensity, better of two orientations | 10.2 ln median PBM intensity, better of two orientations | – |
| GTGCAC_negctrl_site475 (dsDNA) DNA 1: AGAAATAATATTATTCAAGTATTTATTTAATTTTCA DNA 2: TGAAAATTAAATAAATACTTGAATAATATTATTTCT | 6.53 ln median PBM intensity, better of two orientations | 6.75 ln median PBM intensity, better of two orientations | 5.92 ln median PBM intensity, better of two orientations | – |
| GTGCAC_negctrl_site367 (dsDNA) DNA 1: TTTTAAAAAAAAAAAAAATAAGATAAAATTAAATAA DNA 2: TTATTTAATTTTATCTTATTTTTTTTTTTTTTAAAA | 6.6 ln median PBM intensity, better of two orientations | 6.89 ln median PBM intensity, better of two orientations | 6.01 ln median PBM intensity, better of two orientations | – |
| GTGCAC_negctrl_site553 (dsDNA) DNA 1: GGAAAATCTAATCATTTAATATTTATTTATCTAATT DNA 2: AATTAGATAAATAAATATTAAATGATTAGATTTTCC | 6.68 ln median PBM intensity, better of two orientations | 6.76 ln median PBM intensity, better of two orientations | 5.78 ln median PBM intensity, better of two orientations | – |
| GTGCAC_negctrl_site189 (dsDNA) DNA 1: AACAAATATGATTTTTTATATATTTTTAAATTTGGT DNA 2: ACCAAATTTAAAAATATATAAAAAATCATATTTGTT | 6.75 ln median PBM intensity, better of two orientations | 7.09 ln median PBM intensity, better of two orientations | 5.9 ln median PBM intensity, better of two orientations | – |
| GTGCAC_negctrl_site285 (dsDNA) DNA 1: AAAATATTATTACAGAAACAAAAAGAAAAATATATA DNA 2: TATATATTTTTCTTTTTGTTTCTGTAATAATATTTT | 6.76 ln median PBM intensity, better of two orientations | 7.1 ln median PBM intensity, better of two orientations | 6.37 ln median PBM intensity, better of two orientations | – |
| GTGCAC_negctrl_site667 (dsDNA) DNA 1: GTAAGAATATTTATAAATGTATAATTTGTATTATTT DNA 2: AAATAATACAAATTATACATTTATAAATATTCTTAC | 6.8 ln median PBM intensity, better of two orientations | 7.22 ln median PBM intensity, better of two orientations | 6.29 ln median PBM intensity, better of two orientations | – |
| GTGCAC_negctrl_site723 (dsDNA) DNA 1: AGCATTTTAAAAGAAAAAAAAAAAAAAAAAAAAATA DNA 2: TATTTTTTTTTTTTTTTTTTTTTCTTTTAAAATGCT | 6.8 ln median PBM intensity, better of two orientations | 7.05 ln median PBM intensity, better of two orientations | 5.84 ln median PBM intensity, better of two orientations | – |
| GTGCAC_negctrl_site321 (dsDNA) DNA 1: ACAAAAAATTAATGAGAAATGGAATAATAAGTTATA DNA 2: TATAACTTATTATTCCATTTCTCATTAATTTTTTGT | 6.83 ln median PBM intensity, better of two orientations | 7.2 ln median PBM intensity, better of two orientations | 6.32 ln median PBM intensity, better of two orientations | – |
| GTGCAC_negctrl_site227 (dsDNA) DNA 1: ATAGAATAAATTTTGTCATTTATTCCTTATATATAA DNA 2: TTATATATAAGGAATAAATGACAAAATTTATTCTAT | 6.84 ln median PBM intensity, better of two orientations | 7.14 ln median PBM intensity, better of two orientations | 6.37 ln median PBM intensity, better of two orientations | – |
| GTGCAC_negctrl_site656 (dsDNA) DNA 1: ATTATTTATTTATTTTTTTTTTTTTTCTCTTTTCCT DNA 2: AGGAAAAGAGAAAAAAAAAAAAAATAAATAAATAAT | 6.87 ln median PBM intensity, better of two orientations | 6.88 ln median PBM intensity, better of two orientations | 6.27 ln median PBM intensity, better of two orientations | – |
| GTGCAC_negctrl_site150 (dsDNA) DNA 1: TTGTAATAAAGAATTAAAAAAAAATATATACAGGTA DNA 2: TACCTGTATATATTTTTTTTTAATTCTTTATTACAA | 6.9 ln median PBM intensity, better of two orientations | 7.17 ln median PBM intensity, better of two orientations | 6.31 ln median PBM intensity, better of two orientations | – |
| GTGCAC_negctrl_site246 (dsDNA) DNA 1: TTAATTCTATACATAAATTATGTTTACATAAAGAAT DNA 2: ATTCTTTATGTAAACATAATTTATGTATAGAATTAA | 6.9 ln median PBM intensity, better of two orientations | 7.16 ln median PBM intensity, better of two orientations | 6.34 ln median PBM intensity, better of two orientations | – |
| GTGCAC_site10021 (dsDNA) DNA 1: ATAAAATATATATTAGTGCACTAAAGGAAAAAAAAT DNA 2: ATTTTTTTTCCTTTAGTGCACTAATATATATTTTAT | 10.4 ln median PBM intensity, better of two orientations | 12.4 ln median PBM intensity, better of two orientations | 11.6 ln median PBM intensity, better of two orientations | – |
| GTGCAC_negctrl_site519 (dsDNA) DNA 1: AAAATACATATATATATATATAATATTGTTGTTAAA DNA 2: TTTAACAACAATATTATATATATATATATGTATTTT | – | 7.2 ln median PBM intensity, better of two orientations | 6.31 ln median PBM intensity, better of two orientations | – |
| GTGCAC_negctrl_site528 (dsDNA) DNA 1: AAACATCTTTACAACGTCCCTCCTTTTTTATGTACC DNA 2: GGTACATAAAAAAGGAGGGACGTTGTAAAGATGTTT | – | 7.28 ln median PBM intensity, better of two orientations | 6.32 ln median PBM intensity, better of two orientations | – |
| XGTACX_site6231 (dsDNA) DNA 1: ATGTTTTATAAAAGGCGTACACATATATTTAAGTAA DNA 2: TTACTTAAATATATGTGTACGCCTTTTATAAAACAT | – | – | – | 13.5 ln median PBM intensity, better of two orientations |
| XGTACX_site4991 (dsDNA) DNA 1: TAAAATAATATATGGTGTACACAAAAGTATAAATAA DNA 2: TTATTTATACTTTTGTGTACACCATATATTATTTTA | – | – | – | 13.2 ln median PBM intensity, better of two orientations |

| Binder | binding signal (SIP2 D1) | binding signal (AP2-I D3) | binding signal (HDP1 homeodomain-like) | binding signal (AP2-G D1) |
| --- | --- | --- | --- | --- |
| XGTACX_site2835 (dsDNA) DNA 1: GGGGGGATGAGATATTGTACTTTTTAGGAAAGTGTA DNA 2: TACACTTTCCTAAAAAGTACAATATCTCATCCCCCC | – | – | – | 13.2 ln median PBM intensity, better of two orientations |
| XGTACX_site5429 (dsDNA) DNA 1: ATGGACATCTATTGTTGTACACATTTTCCCATAACA DNA 2: TGTTATGGGAAAATGTGTACAACAATAGATGTCCAT | – | – | – | 13.1 ln median PBM intensity, better of two orientations |
| XGTACX_site718 (dsDNA) DNA 1: GTATTAATTTTAAGGTGTACGCAAAAAATTTAATTT DNA 2: AAATTAAATTTTTTGCGTACACCTTAAAATTAATAC | – | – | – | 13.1 ln median PBM intensity, better of two orientations |
| XGTACX_site7745 (dsDNA) DNA 1: GGGGACGCGGGTGGGGGTACTCACACTATGCAAAAT DNA 2: ATTTTGCATAGTGTGAGTACCCCCACCCGCGTCCCC | – | – | – | 13 ln median PBM intensity, better of two orientations |
| XGTACX_site4176 (dsDNA) DNA 1: ATAAATTTAAATAGGAGTACACAGCTTTATATTTTG DNA 2: CAAAATATAAAGCTGTGTACTCCTATTTAAATTTAT | – | – | – | 13 ln median PBM intensity, better of two orientations |
| XGTACX_site3301 (dsDNA) DNA 1: TTTTCTTTTTGTTCGTGTACACACATGAAATTTATA DNA 2: TATAAATTTCATGTGTGTACACGAACAAAAAGAAAA | – | – | – | 13 ln median PBM intensity, better of two orientations |
| XGTACX_site3746 (dsDNA) DNA 1: ATATAAAATATTACGTGTACACATAAATAAAAATAA DNA 2: TTATTTTTATTTATGTGTACACGTAATATTTTATAT | – | – | – | 13 ln median PBM intensity, better of two orientations |
| XGTACX_site820 (dsDNA) DNA 1: ACAATTGAAGAAATACGTACATAAAGAAAAACTAGT DNA 2: ACTAGTTTTTCTTTATGTACGTATTTCTTCAATTGT | – | – | – | 12.9 ln median PBM intensity, better of two orientations |
| XGTACX_site1704 (dsDNA) DNA 1: CTCGTATATATAATACGTACATATTATATATATATA DNA 2: TATATATATATAATATGTACGTATTATATATACGAG | – | – | – | 12.9 ln median PBM intensity, better of two orientations |
| XGTACX_site96 (dsDNA) DNA 1: TGGAACCATAAAAAGTGTACACATATAAAAAATATG DNA 2: CATATTTTTTATATGTGTACACTTTTTATGGTTCCA | – | – | – | 12.8 ln median PBM intensity, better of two orientations |
| XGTACX_site6396 (dsDNA) DNA 1: CCTATAATTAGGGGTAGTACACAAAAAAAAAAAAAA DNA 2: TTTTTTTTTTTTTTGTGTACTACCCCTAATTATAGG | – | – | – | 12.8 ln median PBM intensity, better of two orientations |
| XGTACX_site7607 (dsDNA) DNA 1: AATATACAATAAAGGTGTACACATATATGATGCAAG DNA 2: CTTGCATCATATATGTGTACACCTTTATTGTATATT | – | – | – | 12.8 ln median PBM intensity, better of two orientations |
| XGTACX_site7325 (dsDNA) DNA 1: TTTTTTTTATTTTGTTGTACGCTTATTTGTATATAT DNA 2: ATATATACAAATAAGCGTACAACAAAATAAAAAAAA | – | – | – | 12.8 ln median PBM intensity, better of two orientations |
| XGTACX_site4956 (dsDNA) DNA 1: AATAAATGGAAAAGGTGTACACAAAAAAAAGGGAAA DNA 2: TTTCCCTTTTTTTTGTGTACACCTTTTCCATTTATT | – | – | – | 12.8 ln median PBM intensity, better of two orientations |
| XGTACX_site6887 (dsDNA) DNA 1: TATTTTCCATGAGGTAGTACACATTAAAAAATCGTT DNA 2: AACGATTTTTTAATGTGTACTACCTCATGGAAAATA | – | – | – | 12.8 ln median PBM intensity, better of two orientations |
| XGTACX_site3586 (dsDNA) DNA 1: TATACATACATTAGACGTACACATTTTACCTACACC DNA 2: GGTGTAGGTAAAATGTGTACGTCTAATGTATGTATA | – | – | – | 12.8 ln median PBM intensity, better of two orientations |
| XGTACX_site2251 (dsDNA) DNA 1: GTGTAAAAATTAAAGTGTACACATATATATATATAT DNA 2: ATATATATATATATGTGTACACTTTAATTTTTACAC | – | – | – | 12.8 ln median PBM intensity, better of two orientations |
| XGTACX_site4340 (dsDNA) DNA 1: TGATACTTTTTTTGTAGTACTCCTAAAATTATAAAA DNA 2: TTTTATAATTTTAGGAGTACTACAAAAAAAGTATCA | – | – | – | 12.8 ln median PBM intensity, better of two orientations |

Source: PMC11417369, “DNA sequence and chromatin differentiate sequence-specific transcription factor binding in the human malaria parasite Plasmodium falciparum”
